# Assay results: patent US9908923
# Target: CXCR4 (full-length receptor) (UniProt P61073)
# Test: cell-based or functional assay
# CXCR4 (full-length receptor), sequence (P61073 whole entry): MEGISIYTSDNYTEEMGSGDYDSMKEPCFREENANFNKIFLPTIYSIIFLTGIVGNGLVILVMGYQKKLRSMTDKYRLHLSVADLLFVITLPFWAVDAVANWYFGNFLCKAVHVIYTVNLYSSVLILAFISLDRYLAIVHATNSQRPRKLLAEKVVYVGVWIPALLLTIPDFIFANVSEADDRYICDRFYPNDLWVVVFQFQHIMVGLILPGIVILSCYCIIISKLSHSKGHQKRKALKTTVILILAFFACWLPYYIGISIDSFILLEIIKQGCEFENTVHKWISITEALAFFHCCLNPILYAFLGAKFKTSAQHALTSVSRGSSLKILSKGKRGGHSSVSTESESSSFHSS
row,calcium flux EC50 against unmutated CXCL12 [fold],Substance
1,6,CXCL12 Asn33 to alanine mutant (from UniProt P48061 22-89) (ligand)
2,6,CXCL12 Asn33 to arginine mutant (from UniProt P48061 22-89) (ligand)
3,6,CXCL12 Asn33 to glutamine mutant (from UniProt P48061 22-89) (ligand)
